Read-outs that look alike come from different tables or passages of the source.

One experiment has as its target T1, human LILRA4 (human, UniProt P59901 24-499).
T1 construct: whole, on cells
The experiment is described as follows: FACS on cells expressing human LILRA4, labeled anti-mouse Fc secondary antibody. Here is the method: (§1) ELISA assays were used to screen antibodies against human ILT3 and human LILRA1,2,4-6. […] These antibodies were rescreened by FACS for binding to human ILT3 and cyno ILT3 expressed on HEK-293T cells. The antibodies that bound to both human and cyno ILT3 were selected. This subset of antibodies were screened by FACS against human LILRB1-5 (ILT2, ILT4, ILT5, ILT3, and LILRB5, respectively), cyno LILRB5, and human LILRA1,2,4-6. For FACS screening, each antibody was incubated with cells expressing human ILT3, cyno ILT3, one of the LILRA proteins, or one of the LILRB proteins for 30 minutes at 4° C. After washing, the cells were incubated with labeled anti-mouse Fc antibody for 30 minutes at 4° C. After washing, cells were analyzed on a flow cytometer. Antibodies were selected on the criteria of binding to human ILT3, cyno ILT3, no or limited binding to other LILRB proteins, and no or limited binding to LILRA proteins.

Another experiment has as its target T2, Cyno LILRB5 (Macaca fascicularis, UniProt A0A2K5VIP6).
T2 construct: expressed on the cell surface; also called cynomolgus LILRB5
Nature of the experiment: FACS on cells expressing cyno LILRB5, labeled anti-mouse Fc secondary antibody. The procedure: as §1

Experiment [1] addresses T3, extracellular domain of human ILT3 (huILT3-ECD) (human, UniProt Q8NHJ6 22-259).
T3 construct: also called human ILT3-ECD
Nature of the experiment: SPR (Biacore), antibody captured via anti-Fc on CM5 chip, soluble ILT3-ECD injected, 37 C. Here is the method:
(§2) The binding affinities of anti-ILT3 antibodies to human ILT3 and cyno ILT3 were measured using a Biacore system (GE Healthcare LifeSciences). Briefly, anti-Fc antibody (Sigma-Aldrich) was immobilized on all four flow cells of a CM5 chip using amine coupling reagents (GE Healthcare LifeSciences). Antibodies were captured on flow cells 2, 3, and 4 using flow cell 1 as a reference. Concentrations ranging from 3.3-10 nM of human or cyno ILT3-ECD were injected at a flow rate of 50 μL/min at 37° C. Kinetic data were collected over time and fit using the simultaneous global fit equation to yield affinity constants (KD values) for each antibody.
For orientation: Surface plasmon resonance follows binding to a sensor surface in real time, without labels.

Experiment [2] deals with T4, extracellular domain of cyno ILT3 (cynoILT3-ECD) (cynomolgus monkey).
T4 chain: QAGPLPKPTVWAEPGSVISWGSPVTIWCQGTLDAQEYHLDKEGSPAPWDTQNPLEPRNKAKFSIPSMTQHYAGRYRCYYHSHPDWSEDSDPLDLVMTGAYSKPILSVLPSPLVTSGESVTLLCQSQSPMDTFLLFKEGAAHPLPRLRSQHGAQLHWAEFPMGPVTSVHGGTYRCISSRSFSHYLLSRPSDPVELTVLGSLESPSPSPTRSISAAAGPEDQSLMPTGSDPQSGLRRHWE
The description is as above. The procedure: as §2

In the next experiment the target is T5, human LILRA2 (human, UniProt Q8N149 24-483).
T5 construct: whole, on cells
T5 sequence (Q8N149 24-483): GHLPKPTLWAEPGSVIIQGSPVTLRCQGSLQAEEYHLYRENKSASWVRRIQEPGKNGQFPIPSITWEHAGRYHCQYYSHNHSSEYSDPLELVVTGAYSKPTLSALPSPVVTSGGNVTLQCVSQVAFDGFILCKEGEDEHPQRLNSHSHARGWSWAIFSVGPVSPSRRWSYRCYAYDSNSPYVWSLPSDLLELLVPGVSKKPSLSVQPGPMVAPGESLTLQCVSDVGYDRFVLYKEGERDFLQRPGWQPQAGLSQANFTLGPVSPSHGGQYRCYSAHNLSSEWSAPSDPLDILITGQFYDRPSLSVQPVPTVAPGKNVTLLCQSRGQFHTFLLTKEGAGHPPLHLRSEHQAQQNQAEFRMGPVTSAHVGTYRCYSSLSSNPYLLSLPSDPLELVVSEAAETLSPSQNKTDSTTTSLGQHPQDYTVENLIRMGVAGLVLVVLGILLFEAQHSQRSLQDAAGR
The experiment is described as follows: FACS on cells expressing human LILRA2, labeled anti-mouse Fc secondary antibody. Here is the method:
as §1

In another experiment the target is T6, LILRB3 (human, UniProt O75022).
T6 construct: expressed on the cell surface; also called human LILRB3; ILT5
T6 sequence (O75022 24-631 limits assumed): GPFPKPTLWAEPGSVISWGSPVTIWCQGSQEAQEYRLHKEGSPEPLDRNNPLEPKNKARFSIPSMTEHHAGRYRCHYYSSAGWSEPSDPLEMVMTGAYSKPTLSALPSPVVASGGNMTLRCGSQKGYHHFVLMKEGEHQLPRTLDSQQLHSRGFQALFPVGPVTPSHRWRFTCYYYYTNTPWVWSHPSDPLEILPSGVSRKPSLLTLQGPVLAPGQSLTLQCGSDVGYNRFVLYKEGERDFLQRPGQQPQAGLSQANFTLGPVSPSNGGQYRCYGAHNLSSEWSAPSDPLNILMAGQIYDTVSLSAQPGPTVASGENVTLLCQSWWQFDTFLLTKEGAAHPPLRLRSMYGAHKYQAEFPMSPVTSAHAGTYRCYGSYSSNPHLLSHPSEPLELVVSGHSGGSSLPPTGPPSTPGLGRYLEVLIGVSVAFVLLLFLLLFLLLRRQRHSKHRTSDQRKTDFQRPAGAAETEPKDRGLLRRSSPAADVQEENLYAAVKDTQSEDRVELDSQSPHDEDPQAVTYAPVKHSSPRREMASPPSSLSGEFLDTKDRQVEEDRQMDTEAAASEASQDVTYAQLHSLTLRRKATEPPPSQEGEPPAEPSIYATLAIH
The experiment is described as follows: FACS on cells expressing human LILRB3, labeled anti-mouse Fc secondary antibody. The procedure:
as §1

A further experiment has as its target T7, human LILRA1 (human, UniProt O75019 17-489).
T7 construct: whole, on cells
The experiment is described as follows: FACS on cells expressing human LILRA1, labeled anti-mouse Fc secondary antibody. The procedure: as §1

The next experiment concerns the target T8, LILRB5 (human, UniProt O75023).
T8 construct: expressed on the cell surface; also called human LILRB5; CD85C
The experiment is described as follows: FACS on cells expressing human LILRB5, labeled anti-mouse Fc secondary antibody. Here is the method: as §1

The next experiment concerns the target T9, LILRB4.
T9 construct: the construct expressed on the cells is not described further; also called human ILT3 expressed on cells for the FACS screen; ILT3
Nature of the experiment: FACS on cells expressing human LILRB4 (ILT3), labeled anti-mouse Fc secondary antibody. The procedure: as §1

In the next experiment the target is T10, human LILRA5 (human, UniProt A6NI73 42-299).
T10 construct: whole, on cells
T10 sequence (A6NI73 42-299): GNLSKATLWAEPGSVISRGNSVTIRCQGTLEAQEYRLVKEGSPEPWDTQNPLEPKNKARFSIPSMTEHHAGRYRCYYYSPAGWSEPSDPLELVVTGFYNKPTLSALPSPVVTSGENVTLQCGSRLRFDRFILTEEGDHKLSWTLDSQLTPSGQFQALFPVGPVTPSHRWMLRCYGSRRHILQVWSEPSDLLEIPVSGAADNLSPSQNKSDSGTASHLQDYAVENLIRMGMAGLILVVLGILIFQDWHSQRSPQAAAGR
The experiment is described as follows: FACS on cells expressing human LILRA5, labeled anti-mouse Fc secondary antibody. The procedure:
as §1

In another experiment the target is T11, human LILRA6 (human, UniProt Q6PI73 24-447, limits assumed).
T11 construct: Read out of the printed 'LILRA1,2,4-6'
T11 sequence (Q6PI73 24-447 limits assumed): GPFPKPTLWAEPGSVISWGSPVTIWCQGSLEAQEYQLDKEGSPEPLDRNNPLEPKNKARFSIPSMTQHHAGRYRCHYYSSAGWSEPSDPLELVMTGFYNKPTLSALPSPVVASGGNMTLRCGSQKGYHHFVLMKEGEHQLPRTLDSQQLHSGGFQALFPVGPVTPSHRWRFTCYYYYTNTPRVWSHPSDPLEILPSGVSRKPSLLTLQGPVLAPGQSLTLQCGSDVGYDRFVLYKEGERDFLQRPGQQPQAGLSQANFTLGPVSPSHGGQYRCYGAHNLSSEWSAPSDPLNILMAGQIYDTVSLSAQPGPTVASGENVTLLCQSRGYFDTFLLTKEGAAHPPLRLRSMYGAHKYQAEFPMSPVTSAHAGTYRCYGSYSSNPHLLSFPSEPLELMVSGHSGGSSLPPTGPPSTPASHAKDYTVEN
The experiment is described as follows: FACS on cells expressing human LILRA6, labeled anti-mouse Fc secondary antibody. Here is the method:
as §1

For a further experiment, the target named is T12, human LILRB2 (human, UniProt Q8N423 22-597).
T12 construct: whole, on cells; also called ILT4
T12 sequence (Q8N423 22-597): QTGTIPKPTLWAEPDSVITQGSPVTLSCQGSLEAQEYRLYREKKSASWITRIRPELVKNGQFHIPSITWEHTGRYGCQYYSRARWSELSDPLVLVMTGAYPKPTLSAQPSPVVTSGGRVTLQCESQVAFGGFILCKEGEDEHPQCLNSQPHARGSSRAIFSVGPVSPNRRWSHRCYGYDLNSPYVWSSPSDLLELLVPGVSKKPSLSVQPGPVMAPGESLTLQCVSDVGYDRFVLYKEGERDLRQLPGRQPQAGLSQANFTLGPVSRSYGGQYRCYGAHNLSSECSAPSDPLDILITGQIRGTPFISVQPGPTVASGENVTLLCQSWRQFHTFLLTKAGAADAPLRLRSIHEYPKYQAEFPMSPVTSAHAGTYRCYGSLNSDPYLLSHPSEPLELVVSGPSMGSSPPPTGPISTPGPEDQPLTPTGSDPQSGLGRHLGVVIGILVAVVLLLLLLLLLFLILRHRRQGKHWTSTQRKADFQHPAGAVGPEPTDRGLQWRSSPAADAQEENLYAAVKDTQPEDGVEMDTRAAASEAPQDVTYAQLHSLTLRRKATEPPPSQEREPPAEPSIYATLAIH
The experiment is described as follows: FACS on cells expressing human LILRB2, labeled anti-mouse Fc secondary antibody. The procedure: as §1

Experiment [3] has as its target ILT3 extracellular domain chimeric receptor on NFAT-GFP reporter cells (human). Nature of the experiment: cell-based or functional assay.
Experiment [4] deals with T3, extracellular domain of human ILT3 …. Nature of the experiment: SPR (Biacore), antibody captured via anti-Fc on CM5 chip, soluble ILT3-ECD injected, 37 C. Here is the method:
as §2
(§3) The binding affinity of Hz5A7.v5 to human ILT3 and cyno ILT3 was determined using a Biacore system as described herein and compared with the binding affinity of the parental chimeric 5A7 (ch5A7) antibody and humanized 5A7 without any CDR modifications (Hz5A7.v1) (see Table 12).
The source holds these as a separate data set.

Experiment [5] deals with T4, extracellular domain of cyno ILT3 …. The description is as above. Here is the method: as §2, §3

T1 sequence (P59901 24-499): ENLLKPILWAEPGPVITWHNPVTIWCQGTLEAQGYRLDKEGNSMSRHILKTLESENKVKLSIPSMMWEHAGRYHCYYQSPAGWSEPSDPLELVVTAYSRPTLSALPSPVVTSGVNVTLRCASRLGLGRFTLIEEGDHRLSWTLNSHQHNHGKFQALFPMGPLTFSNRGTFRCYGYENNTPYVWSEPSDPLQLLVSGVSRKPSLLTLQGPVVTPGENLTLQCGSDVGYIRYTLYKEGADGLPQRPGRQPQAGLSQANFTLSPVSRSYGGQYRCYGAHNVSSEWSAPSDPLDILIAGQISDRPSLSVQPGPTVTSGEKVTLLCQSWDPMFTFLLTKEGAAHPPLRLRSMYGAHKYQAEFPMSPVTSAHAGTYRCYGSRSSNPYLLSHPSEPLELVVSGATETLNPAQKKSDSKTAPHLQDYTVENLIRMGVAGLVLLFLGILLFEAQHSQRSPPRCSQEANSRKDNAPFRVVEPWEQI
T7 sequence (O75019 17-489): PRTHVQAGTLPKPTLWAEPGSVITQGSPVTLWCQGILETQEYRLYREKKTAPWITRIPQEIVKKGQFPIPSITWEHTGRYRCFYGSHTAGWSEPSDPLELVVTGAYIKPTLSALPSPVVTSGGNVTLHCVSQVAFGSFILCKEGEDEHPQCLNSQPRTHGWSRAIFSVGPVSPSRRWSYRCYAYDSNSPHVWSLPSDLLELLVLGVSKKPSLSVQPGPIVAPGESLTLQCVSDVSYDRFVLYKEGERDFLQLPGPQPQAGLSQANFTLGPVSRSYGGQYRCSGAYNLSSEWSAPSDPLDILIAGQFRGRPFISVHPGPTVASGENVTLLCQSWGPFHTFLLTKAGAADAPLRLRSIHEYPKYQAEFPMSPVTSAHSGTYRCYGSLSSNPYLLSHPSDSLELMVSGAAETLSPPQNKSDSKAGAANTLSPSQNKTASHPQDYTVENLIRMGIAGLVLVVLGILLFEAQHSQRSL
T8 sequence (O75023 24-590 limits assumed): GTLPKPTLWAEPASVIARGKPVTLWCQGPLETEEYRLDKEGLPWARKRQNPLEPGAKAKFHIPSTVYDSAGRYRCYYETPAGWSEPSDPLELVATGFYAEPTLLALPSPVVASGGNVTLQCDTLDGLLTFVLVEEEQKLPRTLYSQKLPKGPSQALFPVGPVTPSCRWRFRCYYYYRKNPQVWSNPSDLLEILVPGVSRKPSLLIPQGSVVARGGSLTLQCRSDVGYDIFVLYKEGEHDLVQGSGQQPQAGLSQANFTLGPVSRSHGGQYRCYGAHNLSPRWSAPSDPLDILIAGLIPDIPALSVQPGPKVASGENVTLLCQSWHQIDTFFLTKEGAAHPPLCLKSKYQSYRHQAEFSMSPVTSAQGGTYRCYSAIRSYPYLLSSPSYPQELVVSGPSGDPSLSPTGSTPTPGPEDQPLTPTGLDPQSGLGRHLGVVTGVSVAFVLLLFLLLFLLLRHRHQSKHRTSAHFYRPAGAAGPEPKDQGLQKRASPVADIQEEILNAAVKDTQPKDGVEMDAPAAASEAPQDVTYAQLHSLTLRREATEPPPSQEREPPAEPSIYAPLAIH
T2 sequence (A0A2K5VIP6 entry or part of it): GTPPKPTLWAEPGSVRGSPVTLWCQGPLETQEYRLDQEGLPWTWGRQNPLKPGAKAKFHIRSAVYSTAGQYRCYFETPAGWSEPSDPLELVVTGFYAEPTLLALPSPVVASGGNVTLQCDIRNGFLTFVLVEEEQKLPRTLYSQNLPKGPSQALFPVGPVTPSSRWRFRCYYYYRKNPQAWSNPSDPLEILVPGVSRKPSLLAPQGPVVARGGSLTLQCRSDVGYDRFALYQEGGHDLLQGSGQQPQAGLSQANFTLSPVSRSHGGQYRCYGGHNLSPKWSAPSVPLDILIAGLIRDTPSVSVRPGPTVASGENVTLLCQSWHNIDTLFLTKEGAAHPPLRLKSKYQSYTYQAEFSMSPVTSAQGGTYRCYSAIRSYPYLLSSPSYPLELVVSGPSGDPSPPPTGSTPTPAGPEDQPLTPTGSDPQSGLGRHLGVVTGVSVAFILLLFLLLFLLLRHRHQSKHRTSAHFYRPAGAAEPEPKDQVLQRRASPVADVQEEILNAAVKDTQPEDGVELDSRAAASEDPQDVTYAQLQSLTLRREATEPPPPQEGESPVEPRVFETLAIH
T9 sequence (receptor, as listed by the source limits assumed): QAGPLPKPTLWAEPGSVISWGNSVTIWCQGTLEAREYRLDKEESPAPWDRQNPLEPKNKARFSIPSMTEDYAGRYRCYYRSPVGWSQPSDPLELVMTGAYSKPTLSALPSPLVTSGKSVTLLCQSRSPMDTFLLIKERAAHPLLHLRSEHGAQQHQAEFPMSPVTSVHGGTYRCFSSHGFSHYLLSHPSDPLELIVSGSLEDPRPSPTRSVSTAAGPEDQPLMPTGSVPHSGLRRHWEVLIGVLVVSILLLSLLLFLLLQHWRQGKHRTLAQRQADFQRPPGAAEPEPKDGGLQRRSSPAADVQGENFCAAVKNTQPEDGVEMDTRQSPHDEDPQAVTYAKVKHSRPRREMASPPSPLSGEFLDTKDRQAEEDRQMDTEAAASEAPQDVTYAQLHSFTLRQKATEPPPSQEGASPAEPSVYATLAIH

B1: anti-ILT3 antibody 53F10 (antibody, V domains shown)
VH: EVQVVESGGGLVKPGGSLKLSCAASGFTFSDYGMHWVRQAPEKGLEWVAYISTGIITVYYADTVKGRFTMSRDNAKNTLFLQMTSLRSEDTAIYYCARADGRGAMDYWGQGTSVIVSS
VL: DIQMTQTTSSLSASLGDRVTISCRASQDISNFLNWYQQKPDGTVTLLIYYTSRLHSGVPSRFSGSGSGTDYSLTISNLEQEDFATYFCQQGNTLPWTFGGGTKLEIK
notes: Mouse monoclonal antibody from hybridoma
In general, Kd refers to the equilibrium constant for the complex coming apart. A low value points to a tighter complex. As usually defined, the koff is a measure of how fast the partners let go of each other. Low readings indicate a long-lived complex, high ones a short-lived complex. The term kon denotes the second-order rate constant of association. A lower kon goes with slower complex formation. Broadly, the EC50 (read off the curve) is the midpoint of the concentration-response curve. Lower therefore signals an effect from little substance. Regarding B1, the binding result with human LILRA4, with Cyno LILRB5, in the experiment with human LILRA2, with LILRB3, with human LILRA1 and in the experiment with LILRB5 was “no binding (tested: log [Ab] about -7.2 M (about 6e-8 M))” throughout. Also, the binding result with human LILRA5, with human LILRA6 and in the experiment with human LILRB2 was “no binding (tested: log [Ab] about -7.2 M (about 6e-8 M))” each time. Also, the values for the Kd in experiment [1] and in experiment [2] were 0.24 nM and 9.4 nM, respectively. In addition, the koff in experiment [1] was determined as 8e-05 s⁻¹; in experiment [2], 0.0055 s⁻¹. Moreover, the kon is 330000 M⁻¹ s⁻¹ in experiment [1] and 590000 M⁻¹ s⁻¹ in experiment [2]. Besides, the concentration giving a half-maximal response (EC50 (read off the curve)) in the experiment with LILRB4 is about 0.4 nM.

B2: anti-ILT3 antibody ch5A7 (parental chimeric 5A7) (antibody, V domains shown)
VH: EVKLVESGGGLVKPGGSLKLSCAASGFTFSSYGMSWVRQTPEKRLEWVATISGGGSYTNYPDSVKGRLTISRDNAKKNLYLEMSSLRSEDTALYYCARREWRMTLYAMDYWGQGTSVTVSS
VL: NIVLTQSPASLAVSLGQRATISCRASESVDSYGNSFMHWYQQKPGQAPKLLIYLTSNLESGVPARFSGSGSRTDFTLTIDPVEADDAATYYCQQNNEDPFTFGSGTKLEIK
Take B2: the “IC50 (read off the curve)” value in experiment [3] was about 0.01 nM. Further, in [4], binding was put at a Kd of 0.57 nM, the koff was determined as 0.0017 s⁻¹ and the kon was 2.9e+06 M⁻¹ s⁻¹. In experiment [5], this molecule displayed a dissociation constant (Kd) of 2.4 nM, a koff of 0.018 s⁻¹ and a kon of 7.5e+06 M⁻¹ s⁻¹.

B3: anti-ILT3 antibody 48A6 (antibody, V domains shown)
VH: EVQLVESGGDLMKPGGSLKLSCAASGFTFSSYGMSWVRQTPDKRLEWVATISSGGTYTFYPDSVKGRFTISRDNAKNTLYLQMSSLKSEDTAMYYCARRGWLLHYYAMDYWGQGTSVTVSS
VL: NIVLTQSPASLAVSLGQRATISCRPSESVDSFGNSFMHWFQQKPGQPPKLLIYLSSKLESGVPARFSGSGSRTDFTLTIDPVEADDAATYYCQQHNEDPFTFGSGTKLEIK
notes: as for B1
In the case of B3, the binding result in the experiment with human LILRA4 was “no binding (tested: log [Ab] about -7.2 M (about 6e-8 M))”; with Cyno LILRB5, “no binding (tested: log [Ab] about -7.2 M (about 6e-8 M))”; with human LILRA2 it was “no binding (tested: log [Ab] about -7.2 M (about 6e-8 M))”; with LILRB3, “binds”; with human LILRA1 it was “no binding (tested: log [Ab] about -7.2 M (about 6e-8 M))”; in the experiment with LILRB5, “no binding (tested: log [Ab] about -7.2 M (about 6e-8 M))”. Besides, the binding result with human LILRA5, with human LILRA6 and with human LILRB2 was “no binding (tested: log [Ab] about -7.2 M (about 6e-8 M))” each time. Also, the Kd in experiment [1] was under 0.1 nM; in experiment [2], 1.7 nM. Moreover, the values for the koff in [1] and in experiment [2] were 1.8e-07 s⁻¹ and 0.024 s⁻¹, respectively. The kon in experiment [1] worked out at 7e+06 M⁻¹ s⁻¹; in experiment [2] it was 1.4e+07 M⁻¹ s⁻¹. In addition, the “EC50 (read off the curve)” value with LILRB4 was about 0.2 nM.

B4: anti-ILT3 antibody 5A7 (antibody, V domains shown)
VH: EVKLVESGGGLVKPGGSLKLSCAASGFTFSSYGMSWVRQTPEKRLEWVATISGGGSYTNYPDSVKGRLTISRDNAKKNLYLEMSSLRSEDTALYYCARREWRMTLYAMDYWGQGTSVTVSS
VL: NIVLTQSPASLAVSLGQRATISCRASESVDSYGNSFMHWYQQKPGQAPKLLIYLTSNLESGVPARFSGSGSRTDFTLTIDPVEADDAATYYCQQNNEDPFTFGSGTKLEIK
notes: as for B1
Turning to B4, the binding result with human LILRA4, with Cyno LILRB5, with human LILRA2, in the experiment with LILRB3, with human LILRA1 and with LILRB5 was “no binding (tested: log [Ab] about -7.2 M (about 6e-8 M))” in each case. For the same molecule, the binding result in the experiment with human LILRA5, in the experiment with human LILRA6 and with human LILRB2 was “no binding (tested: log [Ab] about -7.2 M (about 6e-8 M))” throughout. Moreover, the Kd in [1] was 0.028 nM; in experiment [2] it was 0.66 nM. In addition, the koff in experiment [1] came out at 0.00011 s⁻¹; in [2], 0.0022 s⁻¹. In addition, the kon in experiment [1] came out at 3.8e+06 M⁻¹ s⁻¹; in experiment [2], 3.3e+06 M⁻¹ s⁻¹. Moreover, in the experiment with LILRB4, the “EC50 (read off the curve)” value is about 0.3 nM.

B5: Hz5A7.v1 (humanized 5A7 without any CDR modifications) (antibody, V domains shown)
VH: EVQLVESGGGLVQPGGSLRLSCAASGFTFSSYGMSWVRQAPGKGLEWVATISGGGSYTNYPDSVKGRFTISRDNAKNSLYLQMNSLRAEDTAVYYCARREWRMTLYAMDYWGQGTTVTVSS
VL: DIQLTQSPSFLSASVGDRVTITCRASESVDSYGNSFMHWYQQKPGKAPKLLIYLTSNLESGVPSRFSGSGSGTEFTLTISSLQPEDFATYYCQQNNEDPFTFGQGTKLEIK
For B5, in experiment [4], the Kd was determined as 0.48 nM, the koff was 0.0012 s⁻¹ and the kon was found to be 2.5e+06 M⁻¹ s⁻¹. For the same molecule, in experiment [5], binding was put at a Kd of 0.65 nM, the koff worked out at 0.0077 s⁻¹ and the kon worked out at 1.2e+07 M⁻¹ s⁻¹.

(Values after patent US20240043533A1 (NGM BIOPHARMACEUTICALS, published 2024).)
